{
  "source": "patent US6001823A",
  "about": "“Treatment or prophylaxis of diseases caused by pilus-forming bacteria” (priority 1995, dated 1999)",
  "key": {"PapD-PapG complex": {"biological_target": "T1, PapD-PapG complex (Escherichia coli, UniProt P15319)", "T1 construct": "made in house", "T1 sequence (P15319 22-239)": "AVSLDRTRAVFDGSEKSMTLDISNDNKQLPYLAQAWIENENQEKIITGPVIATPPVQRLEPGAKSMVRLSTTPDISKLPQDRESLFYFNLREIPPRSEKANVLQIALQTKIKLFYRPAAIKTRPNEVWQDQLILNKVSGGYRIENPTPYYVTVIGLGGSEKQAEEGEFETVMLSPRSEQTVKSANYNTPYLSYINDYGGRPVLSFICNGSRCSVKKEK", "assay": "Reconstitution assay: restoration of PapD-PapG complex from reduced, denatured PapG", "assay_type": "biochemical, E. coli", "settings": "PapD incubated with increasing amounts of peptide", "method": "B: PapD incubated with the G1'-19'WT, G1'-16'WT, K1'-19'WT, and G2'-21'amide was added to reduced, denatured PapD-PapG and the amount of PapD-PapG complex restored in each sample was quantitated as described in example 2. The % inhibition represents the amount of the PapD-PapG complex restored with peptide-treated PapD compared to the amount of PapD-PapG complex restored with untreated PapD. The graph represent the average of 4 experiments. PapD and PapD-PapG complex were prepared as described in F. Lindberg et al, J. Bacteriol. 171, 6052 (1989) and S. J. Hultgren et al., Proc. Natl. Acad. Sci. U.S.A. 86, 4357 (1989).\nFIG. 7: Ability of PapD Arg-8, Lys-112 and Thr-7 mutants to bind PapG and restore the PapD-PapG complex in vitro. 0.4 μg of PapD-PapG complex was reduced and denatured as described in FIG. 2B. The denatured PapD-PapG complex was then diluted with 0-630 ng purified wild type (WT) or mutant PapD. The amount of PapD-PapG restored in the samples was determined as in FIG. 2B and was graphed as a percentage of the greatest amount of PapD-PapG restored. The values graphed represent the average of 3 experiments. Wild type and mutant PapD and the PapD-PapG complex were purified as described in F. Lindberg et al, J. Bacteriol. 171, 6052 (1989) and S. J. Hultgren et al., Proc. Natl. Acad. Sci. U.S.A. 86, 4357 (1989).\nAs described in Kuehn et al., Proc. Natl. Acad. Sci. U.S.A. 88, 10586 (1991), native PapD is able to bind to reduced, denatured PapG and restore the PapD-PapG complex in vitro. This reconstitution assay was used to determine the ability of the peptides to inhibit PapD activity in vitro.\nThe PapD-peptide solution was then added to the reduced, denatured PapD-PapG, incubated at 25° C. for 10 min, and applied to an IEF 3-9 gel (Pharmacia). The amount of PapD-PapG restored in each sample was quantitated by densitometry of the silver stained IEF band corresponding to the pI of the DG complex."}, "PapD": {"biological_target": "T2, PapD (Escherichia coli, UniProt P15319)", "T2 sequence (P15319 22-239)": "T1 sequence (P15319 22-239)", "assay": "Protection of PapD against tryptic cleavage by peptides", "assay_type": "biochemical, E. coli", "design": "made in house", "settings": "PapD preincubated with 20-fold molar excess of peptide", "method": "A Lower: The rate of trypsin cleavage of PapD decreased upon preincubation with the G1'-19'WT, G1'-16'WT or K1'-19'WT peptides, but the G2'-21'amide peptide had no effect. 50 μg of purified PapD was preincubated for 15 min at 25° C. with a 20-fold molar excess of G1'-19'WT, G1'-16'WT, K1'-19'WT or G2'-21'amide peptides (any trypsin cleavage sites in these peptides occur at their amino termini where they were predicted not to interfere with PapD), or an equivalent volume of water. Each sample was then incubated at 37° C. with 3.2 μg of trypsin. Aliquots were removed after 0, 5, 10, 20, 30 and 40 min and boiled in SDS-PAGE sample buffer to stop the digestion. The samples were applied to 15% SDS-PAGE gels and the amount of full-length PapD remaining was determined by densitometry of Coomassie blue stained bands corresponding to full-length PapD which are shown.\n400 μg of PapD was partially digested by incubation with either 4,5 μg trypsin or 0.45 μg chymotrypsin on PBS for 20 min. at 37° C. The PapD digests were applied to a C-18 HPLC column (Beckman) and 2 major fragments were eluted with a 0-100% acetonitrile gradient in 0.01% trifluoroacetic acid. The PapD fragments were identified by their molecular weight on SDS-PAGE and amino-terminal sequencing. The N-terminal amino acid sequences of the approximately 14 kDa tryptic and chymotryptic fragments were identified as residues 100-108 and 104-109 of PapD, respectively, corresponding to cleavage after Lys-99 (for trypsin) and Leu-103 (for chymotrypsin). The N-terminal sequences of the 11 and 12 kDa bands in the digests were identical to the N-terminal sequence of PapD."}},
  "note": "“Also recorded” adds a separate entry of the source.",
  "data": [
    {"substance": "NH2--KPGELSGSMTMVLSFP--COOH (H-KPGELSGSMTMVLSFP-OH) [G1'-16'WT]", "values": [
      {"measurement": "inhibition of restoration of the PapD-PapG complex by PapD", "setting": "PapD-PapG complex", "result": "inhibit restoration"},
      {"measurement": "rate of tryptic cleavage of PapD", "setting": "PapD", "result": "decreased; also recorded: reduced the rate of tryptic cleavage"}
    ]}
  ]
}
